Experimental data published in patent publication US12357692B2, “Method of treating influenza A” (MEDIMMUNE, LLC, priority 2016, dated 2025).

How the values were obtained:
[1] = in vivo
[2] = Anti-drug antibody (ADA) responses in serum, electrochemiluminescent solution-phase bridging immunoassay; assay type: in vivo, human; settings: Days 15, 29 and 101 after single IV dose
Text: Blood samples were collected at Days 15(±1), 29(±2) and 101(±5) to evaluate anti-drug antibody (ADA) responses to MEDI8852 in serum using an electrochemiluminescent, solution-phase, bridging immunoassay. All ADA results were negative (i.e., no anti-drug antibody was found).

[3] = tested on: influenza A virus infection; settings: human, in vivo, iv

## MEDI8852: human IgG1 kappa monoclonal antibody that binds the conserved stalk region of influenza HA protein; VH SEQ ID NO:2, VL SEQ ID NO:7
[1]; human, iv
  half-life following a single IV dose: 19.4 to 22.6 days
[1]
  PK dose linearity: dose-linear
[2]
  anti-drug antibody (ADA) results: negative
[3]
  efficacy: better than oseltamivir alone
